According to PMC8822174, “Evidence for the Rapid and Divergent Evolution of Mycoplasmas: Structural and Phylogenetic Analysis of Enolases” (Frontiers in Molecular Biosciences, 2021):

Molecular target: the molecule itself
Test: native gel or EMSA

Protein | stoichiometry N
Mycoplasma pneumoniae enolase (enzyme, also called Mp Eno; M. pneumoniae Eno) MSAQTGTDLFKIADLFAYQVFDSRGFPTVACVVKLASGHTGEAMVPSGASTGEKEAIELRDGDPKAYFGKGVSQAVQNVNQTIAPKLIGLNATDQAAIDALMIQLDGTPNKAKLGANAILAVSLAVAKAAASAQKTSLFKYLANQVMGLNKTEFILTVPMLNVINGGAHADNNIDFQEFMIMPLGANSMHQALKMASETFHALQKLLKQRGLNTNKGDEGGFAPNLKLAEEALDLMVEAIKAAGYQPGSDIAIALDVAASEFYDDTTKRYVFKKGIKAKILDEKEWSLTTAQMIAYLKKLTEQYPIISIEDGLSEHDWEGMETLTKTLGQHIQIVGDDLYCTNPAIAEKGVAHKATNSILIKLNQIGTLTETIKAINIAKDANWSQVISHRSGETEDTTIADLAVAACTGQIKTGSMSRSERIAKYNRLLQIELELGNNAKYLGWNTFKNIKPQKA | 2
Mycoplasma bovis enolase (enzyme, also called Mb Eno; M. bovis Eno) MPIIERIQAREILDSRGNPTVQVEVTTDYEITGVANVPSGASTGSREALELRDKGTKYEGNWFGGKGVMTAVDNVNEKIAPELIGMSVFDQRAIDKLMIELDGTATKSKLGANAILGVSLAVARAAATELGMPLYRYIGGANAHTLPLPMLNVLNGGEHASNTVDFQEFMIMPVGAKSLREALQMANKVFHNLAKLLKKAGYGTQVGDEGGFAPNCKSHEEVLDYLVEAIKVAGYTPATSGKNAIAIALDAACSELYDENSKKYTFKKLKQAIAEKRSGFEHLDNVKLEYTTDELIEYFGKLIDKYPIISIEDGLAESDWEGFAKMTAKFGSKVQIVGDDLTVTNPKLLEKAIEQKSMNAILIKLNQIGSLSETMDAINKAQKANMACVVSHRSGETEDTTIADLAVAFNTGQIKTGSMSRTDRIAKYNRLLVIEEELGEQSEFEGSKAFYNIK | 8
